In this test the target is Phosphatidylserine decarboxylase (PSD/PISD), purified. Put plainly: microscale thermophoresis (MST), fluorescently labeled purified SMAC, Monolith-NT115. (In general: In MST a laser heats a spot of the sample, and binding alters the fluorescence response.)
Chain of Phosphatidylserine decarboxylase (PSD/PISD), purified (B1AKM7 whole entry): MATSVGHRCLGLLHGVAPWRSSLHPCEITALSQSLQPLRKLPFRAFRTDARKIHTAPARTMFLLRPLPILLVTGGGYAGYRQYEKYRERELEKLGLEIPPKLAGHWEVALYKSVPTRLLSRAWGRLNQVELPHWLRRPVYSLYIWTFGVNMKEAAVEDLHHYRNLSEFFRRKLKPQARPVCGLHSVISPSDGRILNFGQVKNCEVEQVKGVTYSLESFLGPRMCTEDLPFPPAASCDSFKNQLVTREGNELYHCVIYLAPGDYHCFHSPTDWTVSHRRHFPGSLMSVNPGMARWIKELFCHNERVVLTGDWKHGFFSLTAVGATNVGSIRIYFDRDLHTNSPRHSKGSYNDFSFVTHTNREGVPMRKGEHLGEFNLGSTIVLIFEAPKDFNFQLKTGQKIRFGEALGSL

“purified SMAC/Diablo (second mitochondria-derived activator of caspase/direct inhibitor of apoptosis-binding protein with low pI) (from UniProt Q9NR28 56-239)” registered a Kd of 100 nM.

As a reminder, the Kd is the equilibrium constant for the complex coming apart. A higher Kd goes with a looser complex.

These data come from US20210261965A1.
